Assay [1] deals with T1, mouse HER3-Fc (recombinant mouse extracellular domain ErbB3/HER3 Fc chimera, R&D Systems) (mouse, UniProt Q61526 20-641).
T1 construct: extracellular domain; Bought protein; also called murine HER3; Fc part of the bought chimera not given
Kind of assay: ELISA, coated mouse HER3-Fc 250 ng/ml.

In assay [2] the target is T2, HER2/HER3 complex on transfected NIH 3T3 cells (human, UniProt P04626 23-1255; P21860 20-1342).
T2 construct: whole, on cells; NIH 3T3 cells transfected with both HER2 and HER3; also called HER2-HER3 heterodimer
Kind of assay: flow cytometry, HER2/HER3-transfected NIH-3T3 cells. The procedure:
(§1) After three washes in PBS-BSA 0.1%, cells were incubated with the fluorescein-conjugated anti-human IgG-Fragment Fc specific (Sigma) at 4° C. in the dark for 45 min. Cells were then washed three times and suspended in PBS for analysis using an EPICS flow cytometer (Beckman-Coulter, Fullerton, Calif.).

Assay [3] concerns the target T3, HER2 on transfected NIH 3T3 cells (human, UniProt P04626 23-1255).
T3 construct: whole, on cells
Kind of assay: flow cytometry, HER2-transfected NIH-3T3 cells. The procedure: as §1

Assay [4] concerns the target T4, HER3 receptor on cells (HER3-transfected NIH 3T3 fibroblasts; SKBR3 cells; BxPC3 cells) (human, UniProt P21860 20-1342).
T4 construct: whole, on cells; also called ErbB3
Kind of assay: flow cytometry, HER3-transfected NIH-3T3 cells. The procedure:
as §1

Assay [5] addresses T5, EGFR on transfected NIH 3T3 cells (human, UniProt P00533 25-1210).
T5 construct: whole, on cells
Kind of assay: flow cytometry, EGFR-transfected NIH-3T3 cells. The method, then:
as §1

Assay [6] has as its target T6, human HER4-Fc (recombinant human extracellular domain ErbB4/HER4 Fc chimera, R&D Systems) (human, UniProt Q15303 26-651).
T6 construct: extracellular domain; Bought protein; Fc part of the bought chimera not given
T6 sequence (looked up): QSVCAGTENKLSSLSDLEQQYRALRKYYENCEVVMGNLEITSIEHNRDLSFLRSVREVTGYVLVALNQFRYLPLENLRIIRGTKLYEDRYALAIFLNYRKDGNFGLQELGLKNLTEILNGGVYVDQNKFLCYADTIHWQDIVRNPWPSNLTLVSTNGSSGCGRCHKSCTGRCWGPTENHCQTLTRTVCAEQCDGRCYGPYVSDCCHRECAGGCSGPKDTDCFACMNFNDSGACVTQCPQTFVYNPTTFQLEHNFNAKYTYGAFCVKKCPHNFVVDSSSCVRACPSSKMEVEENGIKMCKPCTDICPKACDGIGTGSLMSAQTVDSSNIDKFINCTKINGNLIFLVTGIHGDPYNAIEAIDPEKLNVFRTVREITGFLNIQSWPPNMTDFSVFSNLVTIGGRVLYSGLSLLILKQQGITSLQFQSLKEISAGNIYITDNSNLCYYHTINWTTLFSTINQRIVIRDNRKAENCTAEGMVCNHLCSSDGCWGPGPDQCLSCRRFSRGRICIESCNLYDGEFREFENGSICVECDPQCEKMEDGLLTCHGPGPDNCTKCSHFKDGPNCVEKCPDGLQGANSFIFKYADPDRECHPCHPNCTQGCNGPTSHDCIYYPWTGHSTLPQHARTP
Kind of assay: ELISA, coated HER4-Fc 50 ng. An excerpt: The bound IgG were detected by using HRP-F(ab′) 2 goat anti human IgG F(ab′)2 specific (Interchim).

Assay [7] deals with T7, EGFR/HER4 on transfected NIH 3T3 cells (human, UniProt P00533 25-1210; Q15303 26-1308).
T7 construct: whole, on cells; NIH 3T3 cells transfected with both EGFR and HER4
Kind of assay: flow cytometry, EGFR/HER4-transfected NIH-3T3 cells. The procedure: as §1

For assay [8], the target named is T5, EGFR on transfected NIH 3T3 cells. Kind of assay: flow cytometry, transfected NIH 3T3 cells. The procedure: as §1
In assay [9] the target is T3, HER2 on transfected NIH 3T3 cells. Kind of assay: flow cytometry, transfected NIH 3T3 cells. The procedure:
as §1

Assay [10] concerns the target T7, EGFR/HER4 on transfected NIH 3T3 cells. Description: flow cytometry, transfected NIH 3T3 cells. The method, then:
as §1

For assay [11], the target named is T6, human HER4-Fc (recombinant human …). Kind of assay: ELISA, coated HER4-Fc 250 ng, anti-V5-HRP. The method, then: The purified human Fabs at various concentrations were incubated for 2 hours at 37° C. in coated wells at 250 ng HER3-Fc (or HER4-Fc). The bound Fabs were detected by using HRP-labeled anti-V5 antibody (Invitrogen). Revelation was done at 450 nm in the presence of TMB (Sigma). The Fabs were tested simultaneously for binding on HER3-Fc, HER4-Fc and on Bovine serum Albumin as control.

T1 sequence (Q61526 20-641, change not shown): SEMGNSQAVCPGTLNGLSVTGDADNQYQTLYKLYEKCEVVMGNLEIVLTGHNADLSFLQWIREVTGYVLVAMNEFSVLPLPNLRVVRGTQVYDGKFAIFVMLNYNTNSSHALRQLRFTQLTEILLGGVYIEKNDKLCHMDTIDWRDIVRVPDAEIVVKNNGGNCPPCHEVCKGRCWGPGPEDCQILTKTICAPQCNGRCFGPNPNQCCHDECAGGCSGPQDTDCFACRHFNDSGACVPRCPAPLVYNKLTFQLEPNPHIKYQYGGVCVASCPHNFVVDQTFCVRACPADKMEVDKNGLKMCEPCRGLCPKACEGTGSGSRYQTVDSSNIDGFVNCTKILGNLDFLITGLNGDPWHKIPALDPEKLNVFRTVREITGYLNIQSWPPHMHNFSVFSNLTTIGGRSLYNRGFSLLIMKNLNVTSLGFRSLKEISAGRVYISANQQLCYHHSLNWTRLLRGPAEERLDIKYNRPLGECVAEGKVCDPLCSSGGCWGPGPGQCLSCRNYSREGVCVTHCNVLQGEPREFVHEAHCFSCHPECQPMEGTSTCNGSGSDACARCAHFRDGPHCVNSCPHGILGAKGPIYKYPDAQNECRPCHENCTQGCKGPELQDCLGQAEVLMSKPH

B1: mAb H3A-32 (purified human IgG) (antibody, V domains shown)
VH: EVQLVESGGGLVQPGGSLRLSCAASGFTFDDYAMHWVRQAPGKGLEWVSGISWNSGSIGYADSVKGRFTISRDNAKNSLYLQMNSLRAEDTAVYYCAREGQWPNYGMDVWGQGTTVTVSS
VL: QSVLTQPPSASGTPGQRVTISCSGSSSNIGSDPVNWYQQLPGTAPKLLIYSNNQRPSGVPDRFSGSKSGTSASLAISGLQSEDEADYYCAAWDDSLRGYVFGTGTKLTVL
notes: expressed as human IgG1 in transiently transfected HEK 293 cells, protein A purified
With B1, the binding result in assay [1] was “binds”; in [6] it was “no binding (tested: 0.5 µg/ml)”; in assay [8] it was “no binding”; in assay [9] it was “no binding”; in assay [10] it was “no binding”. Also, the geometric mean was 68.8 in assay [2]; 0.44 in [3]; 10.5 in assay [4]; 0.26 in assay [5]; 0.53 in [7].

B2: Fab H4B-121 (Fab, V domains shown)
VH: EVQLVESGGGLVQPGRSLRLSCAASGFTFDDYAMHWVRQAPGKGLEWVSGISWNSGSIGYADSVKGRFTISRDNAKNSLYLQMNSLRAEDTAVYYCAREGQWPNYGMDVWGQGTTVTVSS
VL: QSVLTQPPSVSAAPGQKVTISCPGSSSNIGNNYVSWYQQLPGTAPKLLIYDNNERPSGIPDRFSGSTSGTSATLDITDLQAEDEATYYCGAWDNTLGVYVLGTGTQLTVL
notes: Fab made in E. coli periplasm with a V5 tag and a C-terminal 6xHis tag
Take B2: the binding result in [11] is recorded as “no binding”.

B3: Fab H3A-32 (Fab, V domains shown)
VH: EVQLVESGGGLVQPGGSLRLSCAASGFTFDDYAMHWVRQAPGKGLEWVSGISWNSGSIGYADSVKGRFTISRDNAKNSLYLQMNSLRAEDTAVYYCAREGQWPNYGMDVWGQGTTVTVSS
VL: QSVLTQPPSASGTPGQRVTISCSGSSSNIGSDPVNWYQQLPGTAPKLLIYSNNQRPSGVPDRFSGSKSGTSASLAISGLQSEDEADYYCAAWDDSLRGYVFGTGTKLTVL
notes: Fab made in E. coli periplasm with a V5 tag and a C-terminal 6xHis tag; also called H3A-32 (Fab format)
On to B3, for which the binding result in assay [11] is given as “no binding”.

B4: mAb H4B-05 (purified human IgG) (antibody, V domains shown)
VH: EVQLVESGGGLVQPGRSLRLSCAASGFTFDDYAMHWVRQAPGKGLEWVSGISWNSGSIGYADSVKGRFTISRDNAKNSLYLQMNSLRAEDTAVYYCAREGQWPNYGMDVWGQGTTVTVSS
VL: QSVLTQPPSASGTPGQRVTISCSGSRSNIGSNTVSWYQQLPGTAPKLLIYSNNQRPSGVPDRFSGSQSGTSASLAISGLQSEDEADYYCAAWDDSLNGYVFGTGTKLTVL
notes: expressed as human IgG1 in HEK 293 cells
In the case of B4, the binding result in [1] is listed as “binds”; in [6] it was “no binding (tested: 0.5 µg/ml)”; in [8], “no binding”; in assay [9] it was “no binding”; in [10] it was “no binding”. The geometric mean was 13.3 in [2]; 0.41 in assay [3]; 7.85 in [4]; 0.28 in assay [5]; 0.52 in assay [7].

B5: Fab H3A-76 (Fab, V domains shown)
VH: EVQLVESGGGLVQPGRSLRLSCAASGFTFDDYAMHWVRQAPGKGLEWVSGISWNSGSIGYADSVKGRFTISRDNAKDSLYLQMNSLRAEDTAVYYCAREGQWPNYGMDVWGQGTTVTVSS
VL: QSVLTQPPSASGTPGQRVTISCSGSSSNIGSNSLNWYQQLPGTAPKLLIYSNNQRPPGVPDRFSGSRSGSSASLAISGLQSGDEGDYYCAAWDDSLKGYVFGTGTQLTVL
notes: Fab made in E. coli periplasm with a V5 tag and a C-terminal 6xHis tag; also called H3A-76 (Fab format)
Regarding B5, the binding result in [11] was “no binding”.

B6: Fab H3A-81 (Fab, V domains shown)
VH: EVQLVESGGGLVQPGGSLRLSCAASGFTFDDYAMHWVRQAPGKGLEWVSGISWNSGSIGYADSVKGRFTISRDNAKNSLYLQMNSLRAEDTAVYYCAREGQWPNYGMDVWGQGTTVTVSS
VL: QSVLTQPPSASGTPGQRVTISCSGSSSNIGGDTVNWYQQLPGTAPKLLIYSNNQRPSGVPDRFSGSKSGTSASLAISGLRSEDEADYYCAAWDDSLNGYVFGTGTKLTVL
notes: Fab made in E. coli periplasm with a V5 tag and a C-terminal 6xHis tag; also called H3A-81 (Fab format)
Turning to B6, the binding result in [11] is “no binding”.

B7: mAb H3A-81 (purified human IgG) (antibody, V domains shown)
VH: EVQLVESGGGLVQPGGSLRLSCAASGFTFDDYAMHWVRQAPGKGLEWVSGISWNSGSIGYADSVKGRFTISRDNAKNSLYLQMNSLRAEDTAVYYCAREGQWPNYGMDVWGQGTTVTVSS
VL: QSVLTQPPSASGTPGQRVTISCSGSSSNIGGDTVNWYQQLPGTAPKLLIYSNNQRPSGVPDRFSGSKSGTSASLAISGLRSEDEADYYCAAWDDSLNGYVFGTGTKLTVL
notes: as for B4
With B7, the binding result in [1] is given as “binds”; in assay [6] it was “no binding (tested: 0.5 µg/ml)”; in [8], “no binding”; in assay [9], “no binding”; in assay [10], “no binding”. For the same molecule, the geometric mean in [2] amounted to 68.5; in assay [3] it was 0.5; in [4], 10.6; in assay [5], 0.26; in assay [7], 0.53.

B8: Fab H4B-05 (Fab, V domains shown)
VH: EVQLVESGGGLVQPGRSLRLSCAASGFTFDDYAMHWVRQAPGKGLEWVSGISWNSGSIGYADSVKGRFTISRDNAKNSLYLQMNSLRAEDTAVYYCAREGQWPNYGMDVWGQGTTVTVSS
VL: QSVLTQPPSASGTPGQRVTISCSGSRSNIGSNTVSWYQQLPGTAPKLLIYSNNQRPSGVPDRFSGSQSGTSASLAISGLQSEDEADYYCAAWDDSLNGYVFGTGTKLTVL
notes: Fab made in E. coli periplasm with a V5 tag and a C-terminal 6xHis tag; also called H4B-05 (Fab format)
With B8, the binding result in assay [11] is on record as “no binding”.

B9: mAb H3A-76 (purified human IgG) (antibody, V domains shown)
VH: EVQLVESGGGLVQPGRSLRLSCAASGFTFDDYAMHWVRQAPGKGLEWVSGISWNSGSIGYADSVKGRFTISRDNAKDSLYLQMNSLRAEDTAVYYCAREGQWPNYGMDVWGQGTTVTVSS
VL: QSVLTQPPSASGTPGQRVTISCSGSSSNIGSNSLNWYQQLPGTAPKLLIYSNNQRPPGVPDRFSGSRSGSSASLAISGLQSGDEGDYYCAAWDDSLKGYVFGTGTQLTVL
notes: as for B4
With B9, the binding result is given as “binds” in [1]; “no binding (tested: 0.5 µg/ml)” in assay [6]; “no binding” in assay [8]; “no binding” in [9]; “no binding” in [10]. Besides, the geometric mean in [2] worked out at 66.6; in assay [3] it was 0.52; in assay [4] it was 11.5; in assay [5] it was 0.24; in [7], 0.53.

B10: U1-59 (Amgen/U3 Pharma-Daiichi Sankyo) (antibody, V domains shown)
VH: QVQLQQWGAGLLKPSETLSLTCAVYGGSFSGYYWSWIRQPPGKGLEWIGEINHSGSTNYNPSLKSRVTISVETSKNQFSLKLSSVTAADTAVYYCARDKWTWYFDLWGRGTLVTVSS
VL: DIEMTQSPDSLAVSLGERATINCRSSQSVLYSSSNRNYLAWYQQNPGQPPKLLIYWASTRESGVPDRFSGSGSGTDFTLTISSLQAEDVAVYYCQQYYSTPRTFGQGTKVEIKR
As for B10, the geometric mean was 15.5 in [2]; 0.42 in assay [3]; 9.32 in assay [4]; 0.25 in assay [5]; 0.59 in assay [7].

B11: Ab#6 (Merrimack Pharmaceuticals) (antibody, V domains shown)
VH: EVQLLESGGGLVQPGGSLRLSCAASGFTFSHYVMAWVRQAPGKGLEWVSSISSSGGWTLYADSVKGRFTISRDNSKNTLYLQMNSLRAEDTAVYYCTRGLKMATIFDYWGQGTLVTVSS
VL: QSALTQPASVSGSPGQSITISCTGTSSDVGSYNVVSWYQQHPGKAPKLIIYEVSQRPSGVSNRFSGSKSGNTASLTISGLQTEDEADYYCCSYAGSSIFVIFGGGTKVTVL
On to B11, for which the geometric mean in assay [2] came to 14.1; in assay [3] it was 0.35; in assay [4], 7.77; in [5], 0.21; in assay [7], 0.51.

The values are drawn from patent publication US20140141019A1 (INSERM INSTITUT NATIONALDE LA SENTE ET DE LA RECHERCHE …, published 2014).
